Results on two molecules are retold here after PMC8056755 (The Journal of Cell Biology, 2021).

Assay [1] has as its target T1, purified His-tagged septin 7 (full length) (UniProt Q16181 1-437).
T1 sequence: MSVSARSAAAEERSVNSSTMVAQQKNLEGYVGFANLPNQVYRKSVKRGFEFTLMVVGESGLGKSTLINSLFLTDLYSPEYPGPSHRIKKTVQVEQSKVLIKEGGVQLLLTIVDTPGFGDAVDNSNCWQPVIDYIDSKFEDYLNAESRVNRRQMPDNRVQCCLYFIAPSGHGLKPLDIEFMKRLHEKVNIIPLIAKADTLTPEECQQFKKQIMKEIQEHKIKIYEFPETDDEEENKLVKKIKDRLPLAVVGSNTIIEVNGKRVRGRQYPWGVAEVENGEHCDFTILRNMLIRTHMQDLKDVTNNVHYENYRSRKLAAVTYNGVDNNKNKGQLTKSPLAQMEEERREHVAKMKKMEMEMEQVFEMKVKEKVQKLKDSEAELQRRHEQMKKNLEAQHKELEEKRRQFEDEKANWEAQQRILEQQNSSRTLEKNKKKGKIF
In words: proteoliposome coflotation.

Assay [2] concerns the target T1, purified His-tagged septin 7 (full …). In words: BLI.
The target in assay [3] is T2, SEPT7-ΔCC (septin 7 residues 1-331, lacking the coiled coil domain), His-tagged (UniProt Q16181 1-331).
T2 sequence: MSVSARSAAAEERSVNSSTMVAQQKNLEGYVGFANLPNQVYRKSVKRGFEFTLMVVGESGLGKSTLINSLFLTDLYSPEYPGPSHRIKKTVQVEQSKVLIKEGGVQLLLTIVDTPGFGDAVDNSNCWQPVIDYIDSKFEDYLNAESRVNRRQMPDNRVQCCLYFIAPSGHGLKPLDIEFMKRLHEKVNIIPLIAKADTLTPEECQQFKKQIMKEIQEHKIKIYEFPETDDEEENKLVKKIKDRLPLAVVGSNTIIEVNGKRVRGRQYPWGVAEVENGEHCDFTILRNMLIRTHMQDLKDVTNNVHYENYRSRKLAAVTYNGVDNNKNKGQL
Kind of assay: BLI.

No end group written: not given here.

B1: FIT2-Strep-His8-GFP fusion protein, reconstituted into proteoliposomes (natural protein)
chain: MEHLERCEWLLRGTLVRAAVRRYLPWALVASMLAGSLLKELSPLPESYLSNKRNVLNVYFVKVAWAWTFCLLLPFIALTNYHLTGKAGLVLRRLSTLLVGTAIWYICTSIFSNIEHYTGSCYQSPALEGVRKEHQSKQQCHQEGGFWHGFDISGHSFLLTFCALMIVEEMSVLHEVKTDRSHCLHTAITTLVVALGILTFIWVLMFLCTAVYFHNLSQKVFGTLFGLLSWYGTYGFWYPKAFSPGLPPQSCSLNLKQDSYKK
Turning to B1, in assay [1], the binding result is given as “binds”.

B2: biotinylated FIT2 N-terminal loop peptide (NTL, residues 1-23) (peptide)
peptide: MEHLERCEWLLRGTLVRAAVRRY
modifications: also: biotinylated, site not given here
On to B2, for which the binding result in assay [2] and in assay [3] was “binds” in each case.
